Patent publication US20170122932A1 (MEDICAL AND BIOLOGICAL LABORATORIES, published 2017)
One block for each binder: values may come before it.

Columns and labels:
[1] = target: the molecule itself; test: fluorescent foci in HEK293 cells co-expressing PB1-mAG1-FKBP12, 500 nM rapamycin; homodimer formation of CD80
Procedure: (§1) (A) CD80-FRB and PB1-mAG1-FKBP12; and [0651] (B) CD2-FRB and PB1-mAG1-FKBP12.
(§2) Specifically, first, HEK293 cells were cultured in a culture solution (DMEM high glucose, 10% FBS, 1% penicillin-streptomycin). Then, on the day before the transfection, the cells were seeded onto an 8-well chamber, and cultured in 100 μL of the culture solution per well. Subsequently, a DNA solution prepared by mixing 200 ng of each of the plasmids was diluted with 10 μL of OptiMEM. Thereafter, 0.8 μL of Fugene HD was added thereto and then stirred. The resultant was further mixed with 90 μl of the culture solution. After that, the obtained mixture solution was added to the cultured cells and cultured for 20 hours.

mAG1-Cyclin D1 = target: T1, mAG1-Cyclin D1 (UniProt P24385 1-295); test: fluorescent foci in HEK293 cells expressing mAG1-Cyclin D1, p21-PB1 and CDK4-PB1
T1 construct: whole, on cells; also called hmAG1-Cyclin D1
T1 sequence (P24385 other isoform, or with tags, fused parts or gaps): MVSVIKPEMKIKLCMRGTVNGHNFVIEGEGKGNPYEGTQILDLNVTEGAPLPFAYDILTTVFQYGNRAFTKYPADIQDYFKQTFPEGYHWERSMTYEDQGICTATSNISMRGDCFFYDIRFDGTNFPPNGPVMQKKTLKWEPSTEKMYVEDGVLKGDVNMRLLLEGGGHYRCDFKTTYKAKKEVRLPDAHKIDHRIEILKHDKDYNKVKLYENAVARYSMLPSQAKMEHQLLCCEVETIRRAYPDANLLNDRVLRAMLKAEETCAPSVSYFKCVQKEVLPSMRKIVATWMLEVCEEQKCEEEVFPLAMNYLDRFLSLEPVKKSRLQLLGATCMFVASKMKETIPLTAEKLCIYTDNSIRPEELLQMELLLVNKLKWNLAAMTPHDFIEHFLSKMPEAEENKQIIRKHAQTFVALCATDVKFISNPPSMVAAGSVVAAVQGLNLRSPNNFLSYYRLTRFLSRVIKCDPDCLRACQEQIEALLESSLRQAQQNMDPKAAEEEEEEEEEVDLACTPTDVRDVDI

[2] = target: the molecule itself; test: fluorescent foci in HEK293 cells co-expressing PB1-mAG1-FKBP12, 500 nM rapamycin; negative control for homodimer formation
Procedure: as §1, §2

B1: CD80-FRB (other, not shown: small tags and cut ends)
chain: VIHVTKEVKEVATLSCGHNVSVEELAQTRIYWQKEKKMVLTMMSGDMNIWPEYKNRTIFDITNNLSIVILALRPSDEGTYECVVLKYEKDAFKREHLAEVTLSVKADFPTPSISDFEIPTSNIRRIICSTSGGFPEPHLSWLENGEELNAINTTVSQDPETELYAVSSKLDFNMTTNHSFMCLIKYGHLRVNQTFNWNTTKQEHFPDNLLPSWAITLISVNGIFVICCLTYCFAPRCRERRRNERLRRESVRPVEMWHEGLEEASRLYFGERNVKGMFEVLEPLHAMMERGPQTLKETSFNQAYGRDLMEAQEWCRKYMKSGNVKDLTQAWDLYYHVFRRISKQ
notes: whole, on cells; In the assay it was joined by rapamycin to PB1-mAG1-FKBP12
binding result [1]: binds

binding result (mAG1-Cyclin D1): binds
B2: CDK4-PB1 (other, not shown: small tags and cut ends)
chain: ATSRYEPVAEIGVGAYGTVYKARDPHSGHFVALKSVRVPNGGGGGGGLPISTVREVALLRRLEAFEHPNVVRLMDVCATSRTDREIKVTLVFEHVDQDLRTYLDKAPPPGLPAETIKDLMRQFLRGLDFLHANCIVHRDLKPENILVTSGGTVKLADFGLARIYSYQMALTPVVVTLWYRAPEVLLQSTYATPVDMWSVGCIFAEMFRRKPLFCGNSEADQLGKIFDLIGLPPEDDWPRDVSLPRGAFPPRGPRPVQSVVPEMEESGAQLLLEMLTFNPHKRISAFRALQHSYLHKDEGNPEMASLTVKAYLLGKEDAAREIRRFSFCCSPEPEAEAEAAAGPGPCERLLSRVAALFPALRPGGFQAHYRDEDGDLVAFSSDEELTMAMSYVKDDIFRIYIKEK
notes: whole, on cells

B3: CD2-FRB (other, not shown: small tags and cut ends)
chain: KEITNALETWGALGQDINLDIPSFQMSDDIDDIKWEKTSDKKKIAQFRKEKETFKEKDTYKLFKNGTLKIKHLKTDDQDIYKVSIYDTKGKNVLEKIFDLKIQERVSKPKISWTCINTTLTCEVMNGTDPELNLYQDGKHLKLSQRVITHKWTTSLSAKFKCTAGNKVSKESSVEPVSCPEKGLDIYLIIGICGGGSLLMVFVALLVFYITKRKKQRSRRNDEELETRAHRVATEERGRKPHQIPASTPQNPATSQHPPPPPGHRSQAPSHRPPPPGHRVQHQPQKRPPAPSGTQVHQQKGPPLPRPRVQPKPPHGAAENSLSPSSNEMWHEGLEEASRLYFGERNVKGMFEVLEPLHAMMERGPQTLKETSFNQAYGRDLMEAQEWCRKYMKSGNVKDLTQAWDLYYHVFRRISKQ
notes: whole, on cells
binding result [2]: no binding
